Data published in the supplement of paper PMC9170038.

System: MS2 coat protein
Assay: apparent KD of MS2 coat protein; designed switch direction (-1 OFF switch, 1 ON switch): -1; higher = weaker reporter binding
How it was run: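 Designed RNA switches were transcribed on Illumina chips by stalled E. coli RNA polymerase and titrated with SNAP-549-labelled MS2 coat protein from 0.7 or 1.5 nM, doubling to 3 µM. Step length ran from 0.8–1.5 h at the lowest concentration to 10–20 min at the highest. The apparent KD is the median over clusters for each design, from curve-fitted normalised cluster fluorescence.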

[1] = input ligand: microRNA oligo, concentration not stated
[2] = Eterna round: R95, input ligand: microRNA oligo, concentration not stated
[3] = Eterna round: R95, input ligand: FMN 200 uM
[4] = Eterna round: R95, input ligand: none

Sequence: GUUUAGUGAGGAUAUAAGGCUUCGAUCGAGCGCGGUCUGCUACAGAAGGCACAUGAGGAUCACCCAUGUUUCUC [salish99_ex4_r4_311] (Eterna round: R97, puzzle: Exclusion 4)
- apparent KD of MS2 coat protein (input ligand: FMN 200 uM): 29.2 nM
- apparent KD of MS2 coat protein (input ligand: none): 34.4 nM

Sequence: CCAUAGUCAGGAUAUACAUGAGGAUCACCCAUGUAAAAUUUUAAUUUAAUUUGAAGGUGUAGAAGGGACCAACC [Ex3 #30] (Eterna round: R97, puzzle: Exclusion 3)
- apparent KD of MS2 coat protein (input ligand: FMN 200 uM): 26.3 nM
- apparent KD of MS2 coat protein (input ligand: none): 33.2 nM

Sequence: UUUUAGUCAGGAUAUACAUGAGGAUCACCCAUGUAAAAUUUUAAUUUAAUUUUAAGGUGUAGAAGGGACAAUAA [Ex3 #8] (Eterna round: R97, puzzle: Exclusion 3)
- apparent KD of MS2 coat protein (input ligand: FMN 200 uM): 32.2 nM
- apparent KD of MS2 coat protein (input ligand: none): 31.3 nM

Sequence: UGUUGUCGCGUAGGAUAUUGUCAACAGGCAGUAGGAUAUGCGAAAGCAGAAGGACCGCCAACAGGCGAGAAGGACGGGACAACU [pwkr exNG2 2xF7 2xFMN.6] (Eterna round: R96, puzzle: Exclusion NG 2)
- apparent KD of MS2 coat protein (input ligand: FMN 200 uM): 44.3 nM
- apparent KD of MS2 coat protein [1]: 35.6 nM
- apparent KD of MS2 coat protein (input ligand: none): 138 nM

Sequence: GUAGGGUCAGGAUAUACGGGCGGGAGGAUGUAUUGUAGUUGGUAGAAGGGACAUGAGGAUCACCCAUGUGAGAA [JR_Exclu4_Sub054] (puzzle: Exclusion 4)
- apparent KD of MS2 coat protein [2]: 31 nM

Sequence: GGAGGAGAGGUUAGGAUAUCCUCCUCGAAAGAGGAGGAGAAGGAACAUGAGGAUCACCCAUGUAAGGAAGGAGG [AK-MS2ROC-r4-Bmoexclusion4-10] (Eterna round: R97, puzzle: Brourd's mod of Exclusion 4)
- apparent KD of MS2 coat protein (input ligand: FMN 200 uM): 27.1 nM
- apparent KD of MS2 coat protein (input ligand: none): 37 nM

Sequence: CUGCUGGAGCGGCGCUUUGGUCGUACAUGAGGAUCACCCAUGUAGGAUAUGGUAAAAUUCGCCUGCUAGAAGGAUAGAGUGGUC [salish99_ExNG3_r04_617] (Eterna round: R96, puzzle: Exclusion NG 3)
- apparent KD of MS2 coat protein (input ligand: FMN 200 uM): 135 nM
- apparent KD of MS2 coat protein [1]: 62.5 nM
- apparent KD of MS2 coat protein (input ligand: none): 88.1 nM

Sequence: UCUAGUUGGUAAGGAUAUCCUACAUUGUUCUGGCCCGGGCAUGCUACAUGAGGAUCACCCAUGUGGGAGAAGGUGCGUCAUUGC [Design 21] (Eterna round: R96, puzzle: Exclusion NG 2)
- apparent KD of MS2 coat protein (input ligand: FMN 200 uM): 44.6 nM
- apparent KD of MS2 coat protein [1]: 32.2 nM
- apparent KD of MS2 coat protein (input ligand: none): 61.9 nM

Sequence: UUUAAUUUUUUUUUUUUACAAGCUUUUUGCUCGUCUUAUACAUGAGGAUCACCCAUGUAGGUGGGAGAUAAAUUAUC [JMF 23] (puzzle: Sensor v3, turn-off variant 2)
- apparent KD of MS2 coat protein [3]: 87.8 nM
- apparent KD of MS2 coat protein [2]: 392 nM
- apparent KD of MS2 coat protein [4]: 131 nM

Sequence: CCCUCACAUGAGGAUCACCCAUGUCAGGAUAUAGUGCGAUUGUCGAUAUGAAAUUGCAUUAGAAGGGAUUAGGC [Eternabot (L1) Solution 67] (Eterna round: R97, puzzle: Exclusion 1)
- apparent KD of MS2 coat protein (input ligand: FMN 200 uM): 24.8 nM
- apparent KD of MS2 coat protein (input ligand: none): 17.5 nM

Sequence: UCUAGGAGAGGAUAUACAUGAGGAUCACCCAUGUGCAUGAUCAGGCGUCAGUCGCACCGUAGAAGGUUCCAGAA [Eternabot (L2) Solution 40] (Eterna round: R97, puzzle: Exclusion 3)
- apparent KD of MS2 coat protein (input ligand: FMN 200 uM): 89.9 nM
- apparent KD of MS2 coat protein (input ligand: none): 47 nM

Sequence: GCAGGUUAAGUCAGGAUAUACCUAUGGAUACAUAGGUAGAAGGGACAUGAGGAUCACCCAUGUUCCUCACCUGC [Fiskers BMX 4 - 21] (puzzle: Brourd's mod of Exclusion 4)
- apparent KD of MS2 coat protein [2]: 13.9 nM

Sequence: AAGUGUCCUAAGGAUAUCGAAGCUAUCGGCUGCCGAGAAGGUAGGACAUGAGGAUCACCCAUGUACCGUGAGCC [Reedor] (puzzle: Exclusion 6)
- apparent KD of MS2 coat protein [2]: 64.6 nM

Sequence: UUCAUGUGAGGAUAUAGUACUUCUUCUAUUAUUAUUGAGUACUAGAAGGCACAUGAGGAUCACCCAUGUAGUAC [Ex4 - 3 - 43] (puzzle: Exclusion 4)
- apparent KD of MS2 coat protein [2]: 39.1 nM

Sequence: UAGUUAGCGUGUGGCACAUACAUGAGGAUCACCCAUGUUAGCUUAUAUAUUGCUCGUCUUAUAACAACACUUAACUU [Mod JX-Electric-eye6] (Eterna round: R97, puzzle: Sensor, turn-off variant 1)
- apparent KD of MS2 coat protein (input ligand: FMN 200 uM): 18.7 nM
- apparent KD of MS2 coat protein (input ligand: none): 19 nM

Sequence: ACUGAACAUGAGGAUCACCCAUGUAAGGAUAUGCCACACGGGCUACAUAGCCAUCAAAGUAGAAGGUGCUGGGA [Eternabot (Original) Solution 15] (Eterna round: R97, puzzle: Exclusion 1)
- apparent KD of MS2 coat protein (input ligand: FMN 200 uM): 20.3 nM
- apparent KD of MS2 coat protein (input ligand: none): 26.2 nM

Sequence: UUGGAGAUAGGAUAUACGAGGAGAGUUGAGGGAACGCGAUGACAUGAGGAUCACCCAUGUAGAAGGAUCAGGAG [JR_Exclu2_Sub070] (puzzle: Exclusion 2)
- apparent KD of MS2 coat protein [3]: 28.2 nM
- apparent KD of MS2 coat protein [2]: 36 nM
- apparent KD of MS2 coat protein [4]: 40.3 nM

Sequence: UUAUCUACUGAGGAUAUUAUAUUACCCGACUGAUAAGAAGGCAGUACAUGAGGAUCACCCAUGUGGGUAGCCAU [Polaris11] (Eterna round: R97, puzzle: Exclusion 6)
- apparent KD of MS2 coat protein (input ligand: FMN 200 uM): 23.2 nM
- apparent KD of MS2 coat protein (input ligand: none): 20.8 nM

Sequence: AUCAGCUCGUGAGGAUAUACAUGAGGAUCACCCAUGUGAUCAAUAGCAGCUUCGGCUGCAUUAAUGUAGAAGGUACGAGCUGAU [ENG2/5-C3] (Eterna round: R96, puzzle: Exclusion NG 2)
- apparent KD of MS2 coat protein (input ligand: FMN 200 uM): 114 nM
- apparent KD of MS2 coat protein [1]: 216 nM
- apparent KD of MS2 coat protein (input ligand: none): 961 nM

Sequence: UUUUAGCUAGGAUAUACAUUUUUUUUAUUAUCCUCAUUAUUACAUGAGGAUCACCCAUGUAGAAGGAGCAUUUU [My Design] (puzzle: Exclusion 2)
- apparent KD of MS2 coat protein [2]: 219 nM

Sequence: CUAAAUCAUGUAGGAUAUGCGUGGCGAAGCUAUGCAGAAGGACAUGAGGAUCACCCAUGUCUUUCCGUCUGAGUACAGACGGGA [Mat - Exclusion NG 1 - Mod of JL - D45] (Eterna round: R96, puzzle: Exclusion NG 1)
- apparent KD of MS2 coat protein (input ligand: FMN 200 uM): 155 nM
- apparent KD of MS2 coat protein [1]: 16.4 nM
- apparent KD of MS2 coat protein (input ligand: none): 18 nM

Sequence: GUUUGCACGCUGCGGUCCUACAUGAGGAUCACCCAUGUGGUCUGGUGGCGUGGGUCGCCGGACUUGGCUCGUCUUGG [salish99_S_TOV1_R5_039] (Eterna round: R97, puzzle: Sensor, turn-off variant 1)
- apparent KD of MS2 coat protein (input ligand: FMN 200 uM): 15 nM
- apparent KD of MS2 coat protein (input ligand: none): 14.8 nM

Sequence: GUCCUGGACUAUCACAAGCACAUGAGGAUCACCCAUGUCAUGGGUAGAUUUAUAAAUAAAGAUACUGCUCGUCUUAU [Cac Sensor turn off var1 sub7] (Eterna round: R97, puzzle: Sensor, turn-off variant 1)
- apparent KD of MS2 coat protein (input ligand: FMN 200 uM): 197 nM
- apparent KD of MS2 coat protein (input ligand: none): 252 nM

Sequence: UCAAUUUUGACAGGAUAUAGUUUUUGUUUUUCUCUAGAAGGGUCUUUGCACAUGAGGAUCACCCAUGUUCUUUUUAUUUGCAUU [JR_ExcNG1_Sub015] (Eterna round: R96, puzzle: Exclusion NG 1)
- apparent KD of MS2 coat protein (input ligand: FMN 200 uM): 62.2 nM
- apparent KD of MS2 coat protein [1]: 42.3 nM
- apparent KD of MS2 coat protein (input ligand: none): 63.3 nM

Sequence: CAGUACUGCAGGCUUAGGGACAUGAGGAUCACCCAUGUUCGUCUUAUUGAUCUAGGUACGCUGACGUACCUAGAUCU [JL-sv1-2.15 Brourd mod] (puzzle: Sensor v3, turn-off variant 1)
- apparent KD of MS2 coat protein [3]: 16.9 nM
- apparent KD of MS2 coat protein [2]: 19 nM
- apparent KD of MS2 coat protein [4]: 18.1 nM
